The source of these data is PMC11059001 (2024).

The target of the test is complement C1q (human, UniProt P02745;P02746;P02747). The experiment in a line: MST.
Sequence of complement C1q (P02745 23-245, chain 1 of 3): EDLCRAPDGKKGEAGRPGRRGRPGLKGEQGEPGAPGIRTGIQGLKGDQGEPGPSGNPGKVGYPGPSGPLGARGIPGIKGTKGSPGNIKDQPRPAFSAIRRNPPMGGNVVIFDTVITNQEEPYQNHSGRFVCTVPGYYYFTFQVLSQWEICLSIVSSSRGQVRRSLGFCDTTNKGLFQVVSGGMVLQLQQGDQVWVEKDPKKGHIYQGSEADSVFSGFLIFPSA
Sequence of complement C1q (P02746 28-253, chain 2 of 3): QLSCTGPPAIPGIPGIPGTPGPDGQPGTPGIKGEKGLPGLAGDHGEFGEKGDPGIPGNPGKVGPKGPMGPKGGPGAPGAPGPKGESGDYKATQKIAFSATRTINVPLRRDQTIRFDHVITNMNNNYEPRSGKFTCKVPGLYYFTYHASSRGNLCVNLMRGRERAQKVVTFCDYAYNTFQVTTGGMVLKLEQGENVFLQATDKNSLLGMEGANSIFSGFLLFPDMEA
Sequence of complement C1q (P02747 29-245, chain 3 of 3): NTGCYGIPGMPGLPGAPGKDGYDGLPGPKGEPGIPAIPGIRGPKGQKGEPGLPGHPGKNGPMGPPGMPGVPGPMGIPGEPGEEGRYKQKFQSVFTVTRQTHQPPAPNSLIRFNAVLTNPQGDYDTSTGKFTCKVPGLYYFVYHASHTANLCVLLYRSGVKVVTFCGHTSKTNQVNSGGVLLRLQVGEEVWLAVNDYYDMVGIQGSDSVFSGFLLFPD

B1: TsCRT^Δ mutant Y132A/N158A (domain or fragment)
chain: EPTIYLKETFDDGDAWKERWVQSKHKDDYGEWQLSHGKLFADENDMGLKTMQDARFYSLSRKFDKVVDNKDKPLVIVYTVKHEQDIDCGGGYIKLMLENTDLEDFNSDTPARIMFGPDICGPEKRAVHSILWHDGKAYEKRKNAIAMADIFTHAYKLIIFPNNSYEIWVNNDKEAYGRLEDDWTMTEPGSGPVPELYRYKGLGAIGFELWQVKSGTIFDNILITDDPEYAKEFIDKQLEALRPIEKVESDK
modifications: fluorescent label RED-NHS (MO-L011 Monolith Protein Labelling Kit) in the MST assays; chain labelled not stated | fluorescent label RED-NHS (MO-L011 Monolith Protein Labelling Kit) in the MST assays; chain labelled not stated | fluorescent label RED-NHS (MO-L011 Monolith Protein Labelling Kit) in the MST assays; chain labelled not stated
For orientation: Kd means the equilibrium constant for the complex coming apart. As to B1, the Kd amounted to 8.89 µM.
